According to patent US20250269025A1 (AVENCELL THERAPEUTICS, published 2025):
No end group written: not given here.

Tests used:
[1] = target: T1, CD123 on CD123 positive AML cells (Oci-AML3, Molm-13, MV4-11, primary AML cells) (human, UniProt P26951 19-378); assay: cellular binding assay per table caption, Molm-13 cells
T1 construct: whole, on cells; Endogenous CD123 on human AML cell lines; also called target antigen CD123

[2] = target: T1, CD123 on CD123 positive AML cells …; assay: cellular binding assay per table caption, Oci-AML3 cells
[3] = target: T2, La epitope 5B9 (SEQ ID No. 28) fused to human Fc domain (human, also: fused to human Fc domain, order, isotype, linker not given here); assay: SPR, Biacore X100, La epitope 5B9-human Fc on CM5 chip; KD 5B9 (second number of the cell)
T2 construct: Coupled to a CM5 sensor chip; not shown: human Fc domain
T2 chain: KPLPEVTDEY
Description: Furthermore, binding of different variants of the targeting module according to the invention was analyzed using the La epitope 5B9 (SEQ ID No. 28) fused to human Fc domain which was coupled to a CM5 sensor chip on a Biacore X100 device (FIG. 3). The targeting modules were purified monomers. The targeting modules were concentrated between 2.47 to 200 nM and measured in technical duplicates. For data fitting and KD calculation a two-state-reaction binding model was applied.

human CD123-Fc = target: T3, human CD123-Fc (human, UniProt P26951 19-305, limits assumed); assay: SPR, Biacore X100, human CD123-Fc on CM5 chip, 1:1 model; KD CD123 (first number of the cell)
T3 construct: Coupled to a CM5 sensor chip; also called soluble recombinant CD123; not shown: Fc part
T3 sequence (looked up): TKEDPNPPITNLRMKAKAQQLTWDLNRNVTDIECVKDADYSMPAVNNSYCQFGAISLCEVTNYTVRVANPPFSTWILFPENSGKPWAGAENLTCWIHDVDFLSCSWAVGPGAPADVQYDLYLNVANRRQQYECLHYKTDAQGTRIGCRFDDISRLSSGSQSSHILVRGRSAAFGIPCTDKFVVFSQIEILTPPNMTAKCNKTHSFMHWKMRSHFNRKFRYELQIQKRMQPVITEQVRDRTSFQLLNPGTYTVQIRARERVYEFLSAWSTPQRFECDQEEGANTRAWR
Description: Binding of different variants of the targeting module according to the invention was analyzed by SPR measurements using human CD123-Fc coupled to a CM5 sensor chip on a Biacore X100 device (FIG. 2). Targeting modules were purified monomer except for the targeting module according to SEQ ID No. 8. […] For data fitting and KD calculation a 1:1 binding model was applied.

[4] = target: T1, CD123 on CD123 positive AML cells …; assay: flow cytometry on Molm-13 cells, anti-His-PE detection. Half-maximal binding from a four-parameter fit of gMFI. Unit taken from the concentration axis [M]
Description: Cellular binding of CD123-binding targeting modules (TM) was tested on CD123 positive target cell lines Oci-AML3 and Molm-13: A) SEQ ID No. 5 to Oci-AML3, B) SEQ ID No. 9 to Oci-AML3, C) SEQ ID No. 4 to Molm-13 and D) SEQ ID No. 6 to Molm-13. The affinity of TMs was analyzed by flow cytometry. The TMs were titrated on an AML cell lines and then detected by a mouse anti-His-tag antibody conjugated to phycoerythrin.
Different concentrations of R-TM123 were incubated with cells, washed and quantified. A dose-response curve was obtained when the geometric mean fluorescence (MFI) was plotted against the TM concentration.

B1: targeting module according to SEQ ID No. 6 (bispecific antibody)
chain: EVQLQQSGPELVKPGASVKMSCKASGYTFTDYYMKWVKQSHGKSLEWIGDIIPSNGATFYNQKFKGKATLTVDRSSSTAYMHLNSLTSEDSAVYYCTRSHLLRASWFAYWGQGTLVTVSAASGGGGSGGGGSGGGGSDFVMTQSPSSLTVTAGEKVTMSCKSSQSLLNSGNQKNYLTWYLQKPGQPPKLLIYWASTRESGVPDRFTGSGSGTDFTLTISSVQAEDLAVYYCQNDYSYPYTFGGGTKLEIKAAARGDIVMTQSPDSLAVSLGERVTMNCKSSQSLLNSRTPKNYLAWYQQKPGQSPKLLIYWASTRKSGVPDRFSGSGSGTDFTLTISSVQAEDVAVYYCKQSYNLLTFGGGTKLEIKGGGGSGGGGSGASAAGGGGSGGGGSQVQLVESGAEVVKPGASVKLSCKASGYAFTHYYIYWIKQAPGQGLEWIGGVNPSNGGTHFNEKFKSRATLTVDTSISTAYMELSRLRSDDTAVYYCTRSEYDYGLGFAYWGQGTLVTVSSGGGGSHHHHHHHH
notes: also called muCD123 + rs5B9-VL-VH
- EC50 [1]: 0.0017 nM
- EC50 [2]: 0.0062 nM
- Kd [3]: 2.1 nM
- Kd (human CD123-Fc): 0.044 nM
- Kd [4]: 7.69 nM

B2: targeting module according to SEQ ID No. 4 (bispecific antibody)
chain: GQVQLVQSGAEVKKPGASVKMSCKASGYTFTDYYMKWVKQAPGQGLEWIGDIIPSNGATFYNQKFQGRATLTVDTSTSTAYMELSSLRSEDTAVYYCTRSHLLRASWFAYWGQGTLVTVSSASGGGGSGGGGSGGGGSDIVMTQSPDSLAVSLGERATINCKSSQSLLNSGNQKNYLTWYLQKPGQPPKLLIYWASTRESGVPDRFSGSGSGTDFTLTISSVQAEDVAVYYCQNDYSYPYTFGGGTKLEIKAAARGDIVMTQSPDSLAVSLGERVTMNCKSSQSLLNSRTPKNYLAWYQQKPGQSPKLLIYWASTRKSGVPDRFSGSGSGTDFTLTISSVQAEDVAVYYCKQSYNLLTFGGGTKLEIKGGGGSGGGGSGASAAGGGGSGGGGSQVQLVESGAEVVKPGASVKLSCKASGYAFTHYYIYWIKQAPGQGLEWIGGVNPSNGGTHFNEKFKSRATLTVDTSISTAYMELSRLRSDDTAVYYCTRSEYDYGLGFAYWGQGTLVTVSSGGGGSHHHHHHHH
notes: also called huCD123_2 + rs5B9-VLVH
- EC50 [1]: 0.0071 nM
- EC50 [2]: 0.026 nM
- Kd [3]: 3.4 nM
- Kd (human CD123-Fc): 5.2 nM
